For assay [1], the target named is representative VHIII-encoded IgG2a Moab (moderate affinity clan VHIII, murine 7183-encoded antibody). The experiment in a line: inhibition ELISA: SpA form in solution preincubated with the murine 7183-encoded IgG2a, then wells coated with tetmDomD′; human Fc fragments added.
Assay [2] concerns the target biotinylated-purified IgG Fc fragments (Jackson Labs). In words: inhibition ELISA: protein in solution incubated with biotinylated IgG Fc fragments, wells coated with SpA, streptavidin-AP.

With “SpA domain D (wildtype), monomer (from UniProt P38507 93-153)”, the half-maximal inhibitory concentration (IC50) amounted to 10000 µM in assay [1] and 200 µM in assay [2]. As to “Staphylococcal protein A (SpA), native, recombinant rSpA (Repligen) (from UniProt P38507 37-437)”, the 50% inhibitory concentration (IC50) in assay [1] is 2 µM; in assay [2], 0.4 µM. Regarding “TetmDomD′ (four-domain concatamer of mutant SpA domain D′, L17D/I31A) (from UniProt P38507 93-153; P38507 93-153; P38507 93-153; P38507 93-153)”, the half-maximal inhibitory concentration (IC50) in assay [1] turned out to be 5000 µM.

The values are drawn from patent publication US7163686.
